Assay results published in PMC3959867 (Science (New York, N.Y.), 2012).

Legend:
[1] = biological target: K11V-TR, cylindrin tandem repeat V2L variant; assay: SEC
[2] = biological target: K11V-TR, cylindrin tandem repeat V2L variant; assay: crystal structure
[3] = biological target: K11V-TR, cylindrin tandem repeat V2L variant; assay: native MS
crystal structure = biological target: the molecule itself; assay: crystal structure

stoichiometry N [1] | stoichiometry N [2] | stoichiometry N [3] | Molecule | binding result (crystal structure)
3 | 3 | 3 | K11V-TR, cylindrin tandem repeat V2L variant (peptide) | 
 |  |  | GDVIEV [G6V, six-residue segment GDVIEV of alphaB crystallin] | binds
